Measurements from IntAct's records for PubMed 11454741.

B1: Synaptotagmin-1 (Rattus norvegicus (Rat)), P21707 (parent)
chain: MVSASHPEALAAPVTTVATLVPHNATEPASPGEGKEDAFSKLKQKFMNELHKIPLPPWALIAIAIVAVLLVVTCCFCVCKKCLFKKKNKKKGKEKGGKNAINMKDVKDLGKTMKDQALKDDDAETGLTDGEEKEEPKEEEKLGKLQYSLDYDFQNNQLLVGIIQAAELPALDMGGTSDPYVKVFLLPDKKKKFETKVHRKTLNPVFNEQFTFKVPYSELGGKTLVMAVYDFDRFSKHDIIGEFKVPMNTVDFGHVTEEWRDLQSAEKEEQEKLGDICFSLRYVPTAGKLTVVILEAKNLKKMDVGGLSDPYVKIHLMQNGKRLKKKKTTIKKNTLNPYYNESFSFEVPFEQIQKVQVVVTVLDYDKIGKNDAIGKVFVGYNSTGAELRHWSDMLANPRRPIAQWHTLQVEEEVDAMLAVKK
partner: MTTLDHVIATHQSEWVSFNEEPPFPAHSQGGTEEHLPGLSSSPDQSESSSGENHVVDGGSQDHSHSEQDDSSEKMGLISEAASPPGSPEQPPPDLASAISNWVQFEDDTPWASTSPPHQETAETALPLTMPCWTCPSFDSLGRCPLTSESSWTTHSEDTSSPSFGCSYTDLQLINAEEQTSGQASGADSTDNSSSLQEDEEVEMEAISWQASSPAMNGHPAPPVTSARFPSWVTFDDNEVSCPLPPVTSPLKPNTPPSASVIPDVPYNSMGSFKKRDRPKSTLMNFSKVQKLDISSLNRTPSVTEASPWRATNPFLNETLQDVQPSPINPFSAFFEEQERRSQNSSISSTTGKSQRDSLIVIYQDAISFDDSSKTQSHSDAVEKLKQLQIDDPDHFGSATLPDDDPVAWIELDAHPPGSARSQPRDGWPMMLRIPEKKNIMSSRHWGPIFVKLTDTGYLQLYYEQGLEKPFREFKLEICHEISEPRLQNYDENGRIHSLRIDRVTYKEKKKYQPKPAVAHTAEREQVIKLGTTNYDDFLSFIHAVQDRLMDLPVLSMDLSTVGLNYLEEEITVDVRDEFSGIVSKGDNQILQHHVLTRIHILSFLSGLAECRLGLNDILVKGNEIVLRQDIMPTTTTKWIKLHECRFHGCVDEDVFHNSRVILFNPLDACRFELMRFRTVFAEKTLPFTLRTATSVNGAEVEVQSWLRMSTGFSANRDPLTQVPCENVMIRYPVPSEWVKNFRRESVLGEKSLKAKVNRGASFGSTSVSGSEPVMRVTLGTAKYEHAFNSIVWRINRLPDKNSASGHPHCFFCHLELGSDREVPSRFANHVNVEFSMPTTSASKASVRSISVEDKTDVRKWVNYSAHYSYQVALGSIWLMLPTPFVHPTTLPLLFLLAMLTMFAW
B2: Stonin-2 (Homo sapiens), Q8WXE9 (parent)
chain: B1 partner

Variants of: B1
Conditions: with ston2_human STON2, Q8WXE9

| Variant | effect of a mutation on the interaction |
| --- | --- |
| K189A;K190A | decreasing interaction |

Variants of: B2
Conditions: with syt1_rat Syt1, P21707

| Variant | effect of a mutation on the interaction |
| --- | --- |
| W738A;K740A | decreasing interaction |
